Measured values from patent publication US20170355757A1 (Regeneron, published 2017).

T1: monkey C5-mmh (monkey, UniProt P01031 19-1676 (human entry), limits assumed)
T1 construct: recombinant, with C-terminal myc-myc-hexahistidine tag
T1 chain: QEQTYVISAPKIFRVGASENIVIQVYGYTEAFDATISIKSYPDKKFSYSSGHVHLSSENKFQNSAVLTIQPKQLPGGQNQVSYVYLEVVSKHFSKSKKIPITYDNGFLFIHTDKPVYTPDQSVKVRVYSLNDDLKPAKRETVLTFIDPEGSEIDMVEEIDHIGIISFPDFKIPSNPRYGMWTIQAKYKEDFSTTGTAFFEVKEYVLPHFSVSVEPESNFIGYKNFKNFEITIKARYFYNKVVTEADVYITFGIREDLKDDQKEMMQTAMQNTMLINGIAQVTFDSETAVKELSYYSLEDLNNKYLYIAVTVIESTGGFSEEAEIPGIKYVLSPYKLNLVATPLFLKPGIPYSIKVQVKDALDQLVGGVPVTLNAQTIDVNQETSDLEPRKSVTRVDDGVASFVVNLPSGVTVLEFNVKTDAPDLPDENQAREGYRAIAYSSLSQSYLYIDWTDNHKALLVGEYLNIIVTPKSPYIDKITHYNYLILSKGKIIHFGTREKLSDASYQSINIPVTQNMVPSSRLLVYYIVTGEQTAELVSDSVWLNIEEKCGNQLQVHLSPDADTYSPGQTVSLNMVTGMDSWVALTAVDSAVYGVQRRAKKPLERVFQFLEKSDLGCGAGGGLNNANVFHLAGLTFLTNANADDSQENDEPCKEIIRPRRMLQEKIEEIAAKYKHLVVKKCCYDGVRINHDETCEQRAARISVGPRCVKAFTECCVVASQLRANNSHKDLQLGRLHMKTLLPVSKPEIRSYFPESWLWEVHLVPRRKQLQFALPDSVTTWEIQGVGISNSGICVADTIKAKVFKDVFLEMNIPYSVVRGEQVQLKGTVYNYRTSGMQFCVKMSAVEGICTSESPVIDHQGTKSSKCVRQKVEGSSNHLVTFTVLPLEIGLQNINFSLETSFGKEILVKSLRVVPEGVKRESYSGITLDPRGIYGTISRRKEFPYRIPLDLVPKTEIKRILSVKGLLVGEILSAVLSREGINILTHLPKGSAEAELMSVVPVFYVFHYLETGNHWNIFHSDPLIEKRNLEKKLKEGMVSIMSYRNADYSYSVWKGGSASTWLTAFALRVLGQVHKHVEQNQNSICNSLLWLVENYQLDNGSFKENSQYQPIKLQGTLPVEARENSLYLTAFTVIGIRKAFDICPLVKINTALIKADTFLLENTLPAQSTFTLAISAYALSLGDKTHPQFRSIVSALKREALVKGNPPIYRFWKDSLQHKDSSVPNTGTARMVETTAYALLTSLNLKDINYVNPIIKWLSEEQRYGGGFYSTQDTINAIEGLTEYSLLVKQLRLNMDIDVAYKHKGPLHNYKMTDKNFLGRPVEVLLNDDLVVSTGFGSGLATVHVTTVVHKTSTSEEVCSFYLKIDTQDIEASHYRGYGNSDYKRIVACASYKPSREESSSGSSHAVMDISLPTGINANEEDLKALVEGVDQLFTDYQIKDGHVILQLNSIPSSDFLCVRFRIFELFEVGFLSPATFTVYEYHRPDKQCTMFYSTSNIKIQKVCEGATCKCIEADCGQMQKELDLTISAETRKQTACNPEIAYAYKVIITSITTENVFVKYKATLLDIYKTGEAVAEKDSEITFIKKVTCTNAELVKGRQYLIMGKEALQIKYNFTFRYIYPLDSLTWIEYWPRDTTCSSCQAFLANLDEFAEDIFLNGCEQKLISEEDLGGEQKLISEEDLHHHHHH


Experiments:
human C5 [1] = target: T2, human C5 (human, UniProt P01031 19-1676); assay: cell-based or functional assay
African green monkey C5 [2] = target: T3, African green monkey C5 (African green monkey); assay: cell-based or functional assay
human C5 R885H-mmh = human C5 R885H-mmh (human, UniProt P01031 19-1676); assay: cell-based or functional assay
human C5 R885C-mmh = human C5 R885C-mmh (human, UniProt P01031 19-1676); assay: cell-based or functional assay
human C5 [3] = target: T2, human C5; assay: cell-based or functional assay; remark: listed apart in the source
Cynomolgus monkey C5 = Cynomolgus monkey C5 (cynomolgus monkey, UniProt A0A2K5U1T1 19-1676); assay: cell-based or functional assay
monkey C5-mmh [4] = target: T1, monkey C5-mmh; assay: SPR (Biacore), mAb captured, dissociation of monkey C5 at pH7.4 vs pH6.0, 25°C
monkey C5-mmh [5] = target: T1, monkey C5-mmh; assay: SPR (Biacore), mAb captured, dissociation of monkey C5 at pH7.4 vs pH6.0, 37°C
African green monkey C5 [6] = target: T3, African green monkey C5; assay: cell-based or functional assay; remark: listed apart in the source
human C5 [7] = target: T2, human C5; assay: SPR (Biacore), mAb captured, dissociation of human C5 at pH7.4 vs pH6.0, 37°C
Procedure: Effect of pH on the rate of dissociation of recombinant human C5 bound to purified anti-C5 monoclonal antibodies was determined using a real-time surface plasmon resonance biosensor using a Biacore T200 instrument. The Biacore sensor surface was first derivatized by amine coupling with a monoclonal mouse anti-human Fc antibody (GE, # BR-1008-39) to capture anti-C5 monoclonal antibodies expressed with human IgG4 Fc. All Biacore binding studies were performed using two running buffers PBS-T, pH7.4 (0.01M Na₂HPO₄/NaH₂PO₄, 0.15M NaCl, 0.05% v/v Tween-20, adjusted to pH7.4) and PBS-T, pH6.0 (0.01M Na₂HPO₄/NaH₂PO₄, 0.15M NaCl, 0.05% v/v Tween-20, adjusted to pH6.0). […] Binding dissociative half-lives (t %) were calculated from kd as: […]

| Binder | IC50, inhibition of CDC of Daudi cells, 1.66% human serum (human C5 [1]) [nM] | IC50, inhibition of CDC of Daudi cells, 1.66% African Green monkey serum (African green monkey C5 [2]) [nM] | IC50, inhibition of CDC of Daudi cells, C5 depleted human serum and 6.6 nM C5 Variant R885H (human C5 R885H-mmh) [nM] | IC50, inhibition of CDC of Daudi cells, C5 depleted human serum and 6.6 nM C5 Variant R885C (human C5 R885C-mmh) [nM] | Human AP % Max Inhibition, hemolysis assay, NHS (human C5 [3]) [%] | Human AP IC50, hemolysis assay, NHS (human C5 [3]) [nM] | Human CP % Max Inhibition, hemolysis assay, NHS (human C5 [3]) [%] | Human CP IC50, hemolysis assay, NHS (human C5 [3]) [nM] | Cyno AP % Max Inhibition, hemolysis assay, 5% serum (Cynomolgus monkey C5) [%] | Cyno CP % Max Inhibition, hemolysis assay, 5% serum (Cynomolgus monkey C5) [%] | Cyno Serum AP IC50, hemolysis assay, 5% serum (Cynomolgus monkey C5) [nM] | Cyno Serum CP IC50, hemolysis assay, 5% serum (Cynomolgus monkey C5) [nM] | t½ Ratio pH7.4/pH6.0 (monkey C5-mmh [4]) | t½ Ratio pH7.4/pH6.0 (monkey C5-mmh [5]) | AGM AP % Max Inhibition, hemolysis assay, 5% serum (African green monkey C5 [6]) [%] | AGM CP % Max Inhibition, hemolysis assay, 5% serum (African green monkey C5 [6]) [%] | AGM Serum AP IC50, hemolysis assay, 5% serum (African green monkey C5 [6]) [nM] | AGM Serum CP IC50, hemolysis assay, 5% serum (African green monkey C5 [6]) [nM] | t½ Ratio pH7.4/pH6.0 (human C5 [7]) |
| --- | --- | --- | --- | --- | --- | --- | --- | --- | --- | --- | --- | --- | --- | --- | --- | --- | --- | --- | --- |
| H4H12183P2 (antibody, human IgG4, V domains shown, H4H: human IgG4 Fc with S108P hinge mutation) VH: QVQLQESGPALVKPSQTLSLTCTVSGGSIIRGSTYWSWVRQFPGKGLEWIGYSYYSGTAYYNPSLESRATISVDTSKNQFSLNLKSVTAADTAVYYCTREIGVAGLFDIWGQGTLVTVSS VL: not shown | 1.7 | 14 | 1.2 | 0.45 | 78.9 | 160 | 99.9 | 5.88 | 100 | 64.6 | 29.6 | 142 | 5.8 | 2.4 |  |  |  |  |  |
| H4H12176P2 (antibody, human IgG4, V domains shown, H4H: human IgG4 Fc with S108P hinge mutation) VH: EVQLVESGGGLVQPGGSLRLSCAASGFHSNRYWMDWVRQAPGKGLEWVANIKQDGSEENYVDSVKGRFTISRDNAKNSLYLQMNSLRAEDTAVYYCARDRSTSWVPYWFFDLWGRGTLVTVSS VL: not shown | 2.7 | 3.5 | 2.1 | 1.3 | 69.9 | 16.5 | 94.1 | 4.58 | 99.3 | 97.5 | 7.7 | 14.7 | ≤ 9.1 | 2.8 | 83.2 | 91 | 47.7 | 30.4 | ≤ 0.4 |
| H4H12169P (antibody, human IgG4, V domains shown, H4H: human IgG4 Fc with S108P hinge mutation) VH: EVQLVESGGGLAQPGGSLRLSCAASGFTFRSYAMSWVRQAPGKGPEWVSGIGGNGVTTYYADSVKGRFTISRDNSKNTLFLQMNSLRAEDTAVYYCVQGGLGGYFTGYWGQGTLVTVSS VL: DIQMTQSPSSLSASVGDRVTITCRASQSISTYLNWYQQNPGKAPKLLIFDASSLQSGVPSRFSGSGSGTDFTLTIRGLQPEDFATYYCQQSYSAPLTFGGGTKVEIK | 1.7 | 2.9 | 1.3 | 0.67 | 44.5 | 20 | 98.3 | 2.36 | 96.3 | 92.8 | 7.95 | 19.9 | 3.4 | 2 | 45.7 | 43.3 | 91.5 | 34.4 |  |
